Reference: article PMC3350866 (Oncogene, 2006)

Molecular target: baculovirus-expressed human Dnmt1 (human, UniProt P26358 1-1616)
Experiment: pull-down

Sequence of baculovirus-expressed human Dnmt1 (P26358 whole entry): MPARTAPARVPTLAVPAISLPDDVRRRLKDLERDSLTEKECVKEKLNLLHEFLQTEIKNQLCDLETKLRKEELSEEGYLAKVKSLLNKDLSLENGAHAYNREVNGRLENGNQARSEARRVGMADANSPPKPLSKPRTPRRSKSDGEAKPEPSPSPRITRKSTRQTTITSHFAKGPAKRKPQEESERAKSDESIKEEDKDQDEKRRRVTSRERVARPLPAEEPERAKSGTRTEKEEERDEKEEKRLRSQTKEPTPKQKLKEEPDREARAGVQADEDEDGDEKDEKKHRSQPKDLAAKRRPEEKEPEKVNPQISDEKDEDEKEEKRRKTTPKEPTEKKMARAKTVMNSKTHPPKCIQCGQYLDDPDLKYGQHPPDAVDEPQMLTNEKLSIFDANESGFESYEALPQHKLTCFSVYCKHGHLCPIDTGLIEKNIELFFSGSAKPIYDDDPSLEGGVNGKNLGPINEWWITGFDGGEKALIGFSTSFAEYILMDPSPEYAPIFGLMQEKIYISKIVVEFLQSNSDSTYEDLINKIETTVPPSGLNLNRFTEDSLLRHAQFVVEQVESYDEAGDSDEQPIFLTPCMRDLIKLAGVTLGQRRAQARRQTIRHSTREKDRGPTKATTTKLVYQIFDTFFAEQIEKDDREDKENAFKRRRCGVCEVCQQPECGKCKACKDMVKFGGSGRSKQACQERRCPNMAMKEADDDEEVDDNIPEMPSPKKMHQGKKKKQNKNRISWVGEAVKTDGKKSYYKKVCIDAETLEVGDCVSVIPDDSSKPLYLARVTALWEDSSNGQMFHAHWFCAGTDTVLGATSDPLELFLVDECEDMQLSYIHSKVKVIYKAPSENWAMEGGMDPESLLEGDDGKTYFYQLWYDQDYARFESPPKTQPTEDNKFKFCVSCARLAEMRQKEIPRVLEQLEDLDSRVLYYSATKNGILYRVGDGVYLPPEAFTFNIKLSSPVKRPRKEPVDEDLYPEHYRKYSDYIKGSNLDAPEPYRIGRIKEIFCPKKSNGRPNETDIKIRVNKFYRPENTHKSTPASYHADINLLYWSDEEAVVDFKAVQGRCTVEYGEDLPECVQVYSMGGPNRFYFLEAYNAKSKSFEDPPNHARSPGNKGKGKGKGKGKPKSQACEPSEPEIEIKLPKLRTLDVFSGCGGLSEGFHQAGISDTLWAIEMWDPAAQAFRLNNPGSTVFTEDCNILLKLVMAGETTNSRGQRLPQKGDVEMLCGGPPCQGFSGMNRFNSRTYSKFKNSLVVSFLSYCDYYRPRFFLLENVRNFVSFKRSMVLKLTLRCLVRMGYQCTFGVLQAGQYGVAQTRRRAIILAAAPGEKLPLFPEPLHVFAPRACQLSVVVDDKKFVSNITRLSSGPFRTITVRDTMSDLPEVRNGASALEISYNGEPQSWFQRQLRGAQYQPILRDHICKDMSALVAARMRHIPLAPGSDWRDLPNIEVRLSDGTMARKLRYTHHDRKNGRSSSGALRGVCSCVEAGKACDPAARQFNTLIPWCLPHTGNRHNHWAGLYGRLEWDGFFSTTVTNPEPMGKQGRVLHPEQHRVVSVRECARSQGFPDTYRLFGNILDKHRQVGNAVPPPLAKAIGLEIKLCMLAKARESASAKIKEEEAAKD

B1: GST-E7 (HPV-16 E7) (natural protein, UniProt P03129 1-98, looked up)
chain: MHGDTPTLHEYMLDLQPETTDLYCYEQLNDSSEEEDEIDGPAGQAEPDRAHYNIVTFCCKCDSTLRLCVQSTHVDIRTLEDLLMGTLGIVCPICSQKP
B1: binds.
